Substitutions are numbered along the chain they refer to.
B1: 39-3F2-2A6 (mAb-2A6) (antibody, V domains shown)
VH: DVKLVESGGGLVKPGGSLKLSCAASGFTFSSYTMSWVRQTPEKRLEWVATISSGGIYTYYPDSVKGRFTISRDNAKNTLYLQMNSLKSEDTAMYYCVRSTSYYFDYWGQGTTLTVSS
VL: DIVMTQSPSSLTVTAGEKVTMSCKSSQSLLSDGSQKNYLTWCQQKPGQPPKLLIYWASTRESGVPDRFTGSGSGTDFTLTISSVQAEDLGVYYCQNDHSYPLTFGAGTKLELK
notes: also called HANA 39-3F2-2A6; sample 22b
B2: 56-2G9-1B3 (mAb-1B3) (antibody, V domains shown)
VH: EVQLVESGGGLVKPGGSLKLSCAASGFIFSSYVMSWVRQTPEKRLEWVATISSGGTNTYYPDSVKGRFTISRDNAKNTLYLQMSSLRSEDTAIYYCVRSYRYYFDYWGQGTTLTVSS
VL: B1 VL with S31N, D32S, C42F, P49S, T59S, G90A, H98S, S99N
B3: 39-4D12-2D11 (mAb-2D11) (antibody, V domains shown)
VH: B1 VH with L18P, I56S, V64L, N84S, M93I, Y95H
VL: B1 VL with S22N, S82D, V91I
notes: also called HANA 39-4D12-2D11; sample 28b

What was measured:
[1] = target: T1, hemagglutinin (HA) of A/Puerto Rico/8/1934 (PR8, H1N1) (Influenza A virus A/Puerto Rico/8/1934 …, UniProt P03452 18-565); experiment: cell-based or functional assay
[2] = target: T1, hemagglutinin (HA) of A/Puerto …; experiment: cell-based or functional assay; remark: listed apart in the source
[3] = target: synthetic peptide #34 […] (Influenza A virus A/Puerto Rico/8/1934 …); experiment: peptide ELISA, peptide coated at 10 µg/ml, mAb at 1 µg/ml
[4] = target: synthetic peptide #39 […] (Influenza A virus A/Puerto Rico/8/1934 …); experiment: as above

| Binder | HI Titer to PR8 [1] | concentration for complete neutralization of PR8, plaque inhibition assay [2] | in ovo neutralization, concentration for complete blocking of PR8 growth [2] | binding result [3] | binding result [4] |
| --- | --- | --- | --- | --- | --- |
| B1 | 80 reciprocal dilution | 0.1 µg/mL | 16 µg/mL | binds | – |
| B2 | 40 reciprocal dilution | 0.1 µg/mL | 8 µg/mL | – | – |
| B3 | 20 reciprocal dilution | 0.1 µg/mL | 4 µg/mL | – | binds |
